Data: patent US10208121B2, “Anti-Axl antagonistic antibodies” (BERGEN TEKNOLOGIOVERFORING AS, priority 2014, dated 2019)
“Also recorded” adds a separate entry of the source.

What was measured:
rhAxl-Fc = molecular target: T1, rhAxl-Fc (Homo sapiens, UniProt P30530); assay: Biacore competitive binding study on rhAxl-Fc (two sample injection); conditions: for competition for Axl binding with control antibody MAB154 / inhibition of Gas6 binding to Axl: rhAxl saturated with antibody; for competition for Axl binding with control antibody MAB154: then MAB154 at 25 μg/mL; for inhibition of Gas6 binding to Axl: then rhGas6 or rmGas6 at 25 μg/mL; for blocking of binding of the other antibody (10C9 / 10G5) to Axl: rhAxl saturated with first antibody, second antibody at 25 μg/mL
T1 construct: Soluble recombinant antigens corresponding to the extracellular domains of members of the human TAM receptor family; purchased R&D Systems 154-AL
Description: A competitive binding study was performed using Biacore 3000 instrument (GE Healthcare) and Binding Analysis wizard with several cycles of two samples injection. As a first sample, a saturating concentration of MAb 10C9 (790 nM or 120 μg/mL) or 10G5 (160 nM or 24 μg/mL) was injected over the surface of a CM5 sensor chip coated with rhAxl-Fc (using amine coupling) for 3 min at flow rate of 30 μL/min followed by 2.5 min stabilization (HBS-EP buffer alone) before the injection of the second sample. The following second samples were used: recombinant human (rh) Gas6 (R&D Systems, Cat. no. 885-GS), recombinant mouse (rm) Gas6 (R&D Systems, Cat. no. 986-GS/CF) and a panel of anti-Axl antibodies, such as MAB154 (R&D Systems, Cat. no. MAB154), 10C9 and 10G5; all at concentration 25 μg/mL. The second sample was injected for 3 min, followed by 2.5 min stabilization (buffer alone) and regeneration of the surface by 30 sec injection of a regeneration solution (10 mM HCl, 1 M NaCl) at flow rate 50 μL/min.

A549 tumours = assay: A549 NSCLC xenograft in nude mice; format: in vivo, mouse
Description: (§1) Inhibition of A549 xenograft tumour growth by chimeric antibody 10G5. The antibody was administrated intraperitoneally at 20 mg/kg, twice a week, starting when the mean tumour size reached 100 mm^3. Tumour growth curves for the groups treated with either vehicle (sterile PBS) or chimeric 10G5 are shown. Error bars represent standard error of the mean (SEM). Statistical analysis was performed using two-way ANOVA. **, P<0.01.
To evaluate the anti-tumour activity of anti-Axl chimeric antibodies in vivo, we used a mouse xenograft model of human non-small cell lung cancer (NSCLC). The human NSCLC A549 cells (ATCC #CCL-185) A549 cells were propagated in vitro as a monolayer culture in DMEM medium supplemented with 10% FBS, 2 mM L-Glutamine, 100 U/ml penicillin and 100 μg/ml streptomycin, 0.01M HEPES buffer, 0.45% D-(+)-glucose, 1 mM sodium pyruvate. Nude mice were implanted subcutaneously (s.c.) into the flank with 5×10^6 A549 cells resuspended in serum-free medium/Matrigel (1:1). When the tumour size reached 100 mm^3 (Day 0 in FIG. 14), the animals were randomized and treated with either vehicle (sterile PBS) or anti-Axl chimeric antibody 10G5 at 20 mg/kg, by intraperitoneal (i.p.) injections twice weekly for 4 weeks.

Mv4-11 tumours = assay: Mv4-11 AML xenograft in nude mice; format: in vivo, mouse
Description: as §1, with “Mv4-11” for “A549”, “by the” for “by”, “30” for “20”, “200” for “100”, “ANOVA. *, P<0.05;” for “ANOVA.”, “P<0.01; ****, P<0.0001.” for “P<0.01.”
To evaluate the anti-tumour activity of anti-Axl chimeric antibodies in a model of haematological cancer, we used a mouse xenograft model of human acute myeloid leukaemia (AML). The human AML Mv4-11 cells (ATCC # CRL-9591) cells were propagated in suspension in IMDM medium supplemented with 10% FBS, 2 mM L-Glutamine, 100 U/ml penicillin and 100 μg/ml streptomycin. Nude mice were implanted s.c. into the flank with 5×10^6 Mv4-11 cells resuspended in the mixture of serum-free IMDM medium and Matrigel (1:1). When the tumour size reached 200 mm^3 (Day 0 in FIG. 15), the animals were randomized and treated with either vehicle (sterile PBS) or anti-Axl chimeric antibody 10G5 at 30 mg/kg, by i.p. injections twice weekly for 4 weeks.

[1] = tested on: Gas6-mediated Axl signalling (phosphorylation of Akt on Ser^473); assay: Gas6-induced Axl downstream signalling, Western blot of phospho-Akt (Ser^473); format: cell-based, human; conditions: HeLa cells, 1 μg/mL antibody for 1 hr, then mouse Gas6 10 μg/mL for 20 min
Description: Western blot analysis illustrating inhibition of Gas6-mediated Axl signalling in the presence of mouse monoclonal antibodies 10C9 and 10G5. Phosphorylation of Akt on Ser^473 was used as surrogate readout for Axl activity. M, molecular weight markers. Immunoblots of total cell lysates were probed with anti-phospho-Akt (Ser^473), or anti-GAPDH (glyceraldehyde 3-phosphate dehydrogenase) as loading control.
The experiments were performed using human cervical cancer derived cell line HeLa (ATCC® CCL-2™). The cells were grown in T175 flasks to 80% confluency in MEM culture medium (Sigma) supplemented with 10% FBS, penicillin-streptomycin and L-glutamine. The cells were washed with PBS and detached by treatment with 0.25% Trypsin/EDTA (Sigma) followed by centrifugation and resuspension in fresh medium (MEM/0.5% FBS). The cells were seeded in Petri dishes (3×10^6 cells per dish) in MEM medium supplemented with 10% FBS. After three hrs incubation at 37° C., the cells were washed with PBS and kept in starvation medium (MEM/0.5% FBS) overnight. The cells were pre-incubated with anti-Axl antibody 10C9 or 10G5 at concentration 1 μg/mL for 1 hr followed by stimulation with Axl ligand, recombinant mouse Gas6 (R&D Systems), at concentration 10 μg/mL for 20 min. […] Detection with anti-GAPDH antibody (Millipore) was used as loading control.

Row | Molecule | competition for Axl binding with control antibody MAB154 (rhAxl-Fc) | inhibition of Gas6 binding to Axl (rhAxl-Fc) | blocking of binding of the other antibody (10C9 / 10G5) to Axl (rhAxl-Fc) | growth of A549 tumours compared with the control (A549 tumours; 20 mg/kg i.p. twice weekly for 4 weeks, P<0.01, two-way ANOVA) | inhibition of tumour growth (A549 tumours; 20 mg/kg i.p. twice weekly, after four weeks of treatment, versus vehicle (PBS)) | growth of Mv4-11 tumours compared with the control (Mv4-11 tumours; 30 mg/kg i.p. twice weekly for 4 weeks, P<0.0001, two-way ANOVA) | inhibition of tumour growth (Mv4-11 tumours; 30 mg/kg i.p. twice weekly, after three weeks of treatment, versus vehicle (PBS)) | Gas6-induced phosphorylation of Akt on Ser^473 [1]
1 | 10G5: mouse anti-Axl monoclonal antibody from hybridoma WR-10G5-E5, IgG1; VH SEQ ID NO: 21, VL SEQ ID NO: 22 (antibody, listed as Mus musculus, V domains shown) VH: QVQLQQSGAELVRPGASVKLSCKASGYSFTDFYINWVRQRPGQGLEWIARIFPGGDNTYYNEKFKGKATLTAEESSSTAYIQLSSLTSEDSAVYFCARRGLYYAMDYWGQGISVTVSS VL: DVLMTQTPLSLPVSLGDQASISCRSSQSLVHSNGIPYLHWYLQKPGQSPKLLIYRVSNRFSGVPDRFSGSGSGTDFTLKISRVEAEDLGVYFCSQGTHVPPTFGGGTKLEIK | did not compete | inhibit the binding of Axl to its ligand Gas6; also recorded: inhibited Axl binding by its ligand Gas6 | blocked binding of each other | – | – | – | – | –
2 | c10G5: chimeric (mouse variable/human constant) IgG1 variant of antibody 10G5 (antibody, left off: a dimerising Fc or GST, chimeric (mouse variable/human constant) IgG1 variant of antibody 10G5) heavy: QVQLQQSGAELVRPGASVKLSCKASGYSFTDFYINWVRQRPGQGLEWIARIFPGGDNTYYNEKFKGKATLTAEESSSTAYIQLSSLTSEDSAVYFCARRGLYYAMDYWGQGISVTVSS light: DVLMTQTPLSLPVSLGDQASISCRSSQSLVHSNGIPYLHWYLQKPGQSPKLLIYRVSNRFSGVPDRFSGSGSGTDFTLKISRVEAEDLGVYFCSQGTHVPPTFGGGTKLEIK | – | – | – | significantly attenuated growth of A549 tumours | around 40% | extremely significantly attenuated growth of Mv4-11 tumours | around 75% | –
3 | 10C9: mouse anti-Axl monoclonal antibody from hybridoma UT-10C9-B9, IgG2b; VH SEQ ID NO: 3, VL SEQ ID NO: 4 (antibody, listed as Mus musculus, V domains shown) VH: QVQLQQPGPELVKPGASVKISCKTSDYNFTRYYIHWVKQRPGQGLEWIGWIYPGTGDSKYNEKFKGRATLTADTSSSTAYMQLSSQTSEDSAVYFCARNGNYWYFDVWGAGTAVTVSS VL: DIVMTQAAPSGPVTPGESVSISCRSSKSLLHSNGNTYLYWFLQRPGQSPQLLIYRMSNLASGVPDRFSGSGSGTAFTLRISRVEAEDVGIYYCMQHREYPFTFGGGTKLEIK | did no inhibit; also recorded: did not compete | inhibit the binding of Axl to its ligand Gas6; also recorded: cannot be bound; also recorded: inhibited Axl binding by its ligand Gas6 | cannot be bound; also recorded: blocked binding of each other | – | – | – | – | significantly reduces; also recorded: significantly be reduced
